Assay results from US20220177584A1 (Janssen / Centocor, published 2022).

Target: cynomolgus monkey GPRC5D (cynomolgus monkey)
Assay: cell-based or functional assay

B1: talquetamab (bispecific antibody, human IgG4 S228P, lambda, F234A L235A)
heavy 1: not shown
light 1: DIQMTQSPSSLSASVGDRVTITCKASQNVATHVGWYQQKPGKAPKRLIYSASYRYSGVPSRFSGSGSGTEFTLTISNLQPEDFATYYCQQYNRYPYTFGQGTKLEIKKAAPSVTLFPPSSEELQANKATLVCLISDFYPGAVTVAWKGDSSPVKAGVETTTPSKQSNNKYAASSYLSLTPEQWKSHRSYSCQVTHEGSTVEKTVAPTECS
heavy 2: EVQLVESGGGLVQPGGSLRLSCAASGFTFNTYAMNWVRQAPGKGLEWVARIRSKYNNYATYYAASVKGRFTISRDDSKNSLYLQMNSLKTEDTAVYYCARHGNFGNSYVSWFAYWGQGTLVTVSSASTKGPSVFPLAPCSRSTSESTAALGCLVKDYFPEPVTVSWNSGALTSGVHTFPAVLQSSGLYSLSSVVTVPSSSLGTKTYTCNVDHKPSNTKVDKRVESKYGPPCPPCPAPEAAGGPSVFLFPPKPKDTLMISRTPEVTCVVVDVSQEDPEVQFNWYVDGVEVHNAKTKPREEQFNSTYRVVSVLTVLHQDWLNGKEYKCKVSNKGLPSSIEKTISKAKGQPREPQVYTLPPSQEEMTKNQVSLTCLVKGFYPSDIAVEWESNGQPENNYKTTPPVLDSDGSFLLYSKLTVDKSRWQEGNVFSCSVMHEALHNHYTQKSLSLSLGK
light 2: QTVVTQEPSLTVSPGGTVTLTCRSSTGAVTTSNYANWVQQKPGQAPRGLIGGTNKRAPGTPARFSGSLLGGKAALTLSGVQPEDEAEYYCALWYSNLWVFGGGTKLTVLGQPKAAPSVTLFPPSSEELQANKATLVCLISDFYPGAVTVAWKADSSPVKAGVETTTPSKQSNNKYAASSYLSLTPEQWKSHRSYSCQVTHEGSTVEKTVAPTECS
- in vivo pharmacological activity, cynomolgus monkey against human: ~100 fold lower
